Data on ten molecules can be found in US20250346673A1 (DUALITY BIOLOGICS SUZHOU, published 2025).

Experiment [1] addresses T1, human BDCA2 (human, UniProt Q8WTT0 1-213).
T1 sequence (looked up): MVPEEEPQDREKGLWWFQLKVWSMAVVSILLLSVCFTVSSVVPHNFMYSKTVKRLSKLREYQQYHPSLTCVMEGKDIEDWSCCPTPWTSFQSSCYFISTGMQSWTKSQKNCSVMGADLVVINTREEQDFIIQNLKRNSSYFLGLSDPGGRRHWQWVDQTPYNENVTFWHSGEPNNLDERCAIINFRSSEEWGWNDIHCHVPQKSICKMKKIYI
The experiment can be described thus: cell-based or functional assay.

In experiment [2] the target is T1, human BDCA2. The experiment can be described thus: FACS on CHOK1-hBDCA2 cells; EC50 table beside the plot, unit from the x axis (nM) [continued) c.]. On the procedure: The cells were recovered and resuspended to 2×10⁶/mL with FACS buffer (PBS+2% FBS). The cells were added to 3799 cell plates (Corning) at 100 μL/well, and the supernatant was discarded after centrifugation at 300 g. The antibodies were serially diluted with FACS buffer (Id.), the diluted antibodies were added to centrifuged cells and the cells were resuspended. The cells were incubated at 4° C. for 1 h. The incubated cells were centrifuged at 300 g for 5 min and washed twice with FACS buffer. 100 μL […] anti-Human IgG (H+L) Cross-Adsorbed Secondary Antibody-Alexa Fluor 488 (Sigma, A11013; 1:1000) secondary antibody was added, washed twice with FACS buffer after incubation at 4° C. for 1 h, resuspended with PBS, analyzed with FACS (BD FACS CantoTM II) instrument and curve fitted with GraphPad Prism6, and EC₅₀ values were calculated.

The target in experiment [3] is T1, human BDCA2. The experiment can be described thus: FACS on CHOK1-hBDCA2 cells; EC50 table under the plot, unit from the x axis (nM) [continued) d.]. On the procedure:
(§1) The cells were recovered and resuspended to 2×10⁶/mL with FACS buffer (PBS+2% FBS). The cells were added to 3799 cell plates (Corning) at 100 μL/well, and the supernatant was discarded after centrifugation at 300 g. The antibodies were serially diluted with FACS buffer (Id.), the diluted antibodies were added to centrifuged cells and the cells were resuspended. The cells were incubated at 4° C. for 1 h. The incubated cells were then centrifuged at […] for 5 min and washed twice with FACS buffer. 100 μL Donkey anti-Mouse IgG (H+L) Highly Cross-Adsorbed Secondary Antibody-Alexa Fluor 488 (Invitrogen, A21202; 1:1000) secondary antibody was added to the cells, which were washed twice with FACS buffer after incubation at 4° C. for 1 h, resuspended with PBS, analyzed with FACS (BD FACS CantoTM II) instrument. The curve was fitted with GraphPad Prism6, and EC₅₀ values were calculated.

In experiment [4] the target is T2, cynomolgus BDCA2 (cynomolgus monkey, UniProt A0A2K5UWP4 1-212).
T2 construct: whole, on cells; also called Cyno BDCA2; cynoBDCA2
T2 sequence: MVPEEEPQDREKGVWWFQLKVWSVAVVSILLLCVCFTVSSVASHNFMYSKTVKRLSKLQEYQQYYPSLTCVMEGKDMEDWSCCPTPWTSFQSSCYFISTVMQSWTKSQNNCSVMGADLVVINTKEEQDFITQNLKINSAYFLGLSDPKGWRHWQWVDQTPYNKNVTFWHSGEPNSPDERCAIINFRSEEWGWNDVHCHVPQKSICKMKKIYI
The experiment can be described thus: FACS on 293F-cynoBDCA2 cells; EC50 table under the plot, unit from the x axis (nM) [continued) d.]. The method, then:
as §1

The EC50 is the concentration that produces a half-maximal response. A higher EC50 goes with weaker potency.

B1: mab020c (antibody, V domains shown)
VH: DVQLQESGPGLVKPSQSLSLTCSVTGYSIASGYYWNWIRQFPGNKLEWMGYISFDGTYNYNPSLKDRFSITRDTSKNQFFLKLNSVTTEDTATYYCARGVDYPNAIDWWGQGTSVTVSS
VL: DIVLTQSPASLAVSLGQRATISCRASESVSMHVTHLIHWYQQKPGQPPKLLIYVASNLESGVPARFSGSGSETDFTLNIHPVEEEDAATYFCQQSFEDPWTFGGGTKLEIK
For B1, in experiment [1], the “IC50, inhibition of IFNα secretion, CpG-A stimulated human PBMC” value (from here on “IC50, inhibition of IFNα secretion”) came to 18.5 pM. Moreover, the response in experiment [2] was half-maximal at 831 pM (EC50).

B2: mab024c (antibody, V domains shown)
VH: EVQLVESGGDLVKPGGSLKLSCAASGFTFSSFGMSWVRQTPDKRLDWVATISSGDSYTYYPDSVKGRFSISRDNAKNTLYLQMSSLKSEDTAVYYCARQIYYDYAYYFDYWGQGTTLTVSS
VL: DIVLTQSPASLAVSLGQRATISCRASESVSFRSSHLMHWYRQKPGQPPKLLIYAASNLESGVPARFSGSGSETDFTLNIHPVEEEDAAAYFCQQSIEDPPTFGGGTKLEIK
For B2, in experiment [1], the “IC50, inhibition of IFNα secretion” value was determined as 16.8 pM. In experiment [2], this molecule gave a concentration giving a half-maximal response (EC50) of 550 pM.

B3: mAb024 (antibody, V domains shown)
VH: EVQLVESGGDLVKPGGSLKLSCAASGFTFSSFGMSWVRQTPDKRLDWVATISSGDSYTYYPDSVKGRFSISRDNAKNTLYLQMSSLKSEDTAVYYCARQIYYDYAYYFDYWGQGTTLTVSS
VL: DIVLTQSPASLAVSLGQRATISCRASESVSFRSSHLMHWYRQKPGQPPKLLIYAASNLESGVPARFSGSGSETDFTLNIHPVEEEDAAAYFCQQSIEDPPTFGGGTKLEIK
notes: Mouse hybridoma antibody
On to B3, for which, in experiment [1], the “IC50 for inhibiting cytokine IFNα release, CpG-A stimulated human PBMC” value came out at 2.74 pM. In addition, the EC50 amounted to 343 pM in experiment [3] and 1040 pM in experiment [4].

B4: mab022c (antibody, V domains shown)
VH: DVQLQESGPGLVKPSQSLSLTCSVTGYSITSGYYWNWIRQFPGNKLEWMGYISFDGTYNYNPSLKDRFSITRDTSKNQFFLKLNSVTTEDTATYYCARGVDYPKAMDWWGQGTSVTVSS
VL: DIVLTQSPASLAVSLGQRATISCRASESVSMHVTHLIHWYQQKPGQPPKLLIYVASNLESGVPARFSGSGSETDFTLNIHPVEEEDAATYFCQQSFEDPWTFGGGTKLEIK
Consider B4, for which, in experiment [1], the “IC50, inhibition of IFNα secretion” value is 32.4 pM. Also, the midpoint of the response in experiment [2], the EC50, lay at 938 pM.

B5: mab019c (antibody, V domains shown)
VH: EVKLVESGGDLVQPGGSLKLSCAASGFTFSDYYMYWVRQTPEKRLEWVAYISYSGDSTYYPDTVKGRFTISRDNAKNTLFLQMSRLKSEDTAMYYCARHSPSFPYYFDYWGQGTALTVSS
VL: EIVLTQSPAITAASLGQKVTITCSASSSVSYMHWYQQKSGTSPKPWIYEISKLASGVPARFSGSGSGTSYSLTISSMEAEDAAIYYCQLWNYPLITFGGGTNLEIK
Regarding B5, in experiment [1], the “IC50, inhibition of IFNα secretion” value worked out at 14.9 pM. For the same molecule, the response in experiment [2] was half-maximal at 5170 pM (EC50).

B6: mAb019 (antibody, V domains shown)
VH: EVKLVESGGDLVQPGGSLKLSCAASGFTFSDYYMYWVRQTPEKRLEWVAYISYSGDSTYYPDTVKGRFTISRDNAKNTLFLQMSRLKSEDTAMYYCARHSPSFPYYFDYWGQGTALTVSS
VL: EIVLTQSPAITAASLGQKVTITCSASSSVSYMHWYQQKSGTSPKPWIYEISKLASGVPARFSGSGSGTSYSLTISSMEAEDAAIYYCQLWNYPLITFGGGTNLEIK
notes: Mouse hybridoma antibody
With B6, the “IC50 for inhibiting cytokine IFNα release, CpG-A stimulated human PBMC” value in experiment [1] was found to be 3.32 pM. The EC50 turned out to be 271 pM in experiment [3] and 485 pM in experiment [4].

B7: mab021c (antibody, V domains shown)
VH: DVQLQESGPGLVKPSQSLSLTCSVTGYSITSAYYWNWIRQFPGNKLECMGYITYDGNNYYSPSLKNRISITRDTSKNQFFLNLNSVTTEDTATYFCARGGDYDDGGFAFWGQGTLVTVSA
VL: DIQMTQSPASLSASVGETVTITCRASGNIHNYLAWYHQKQGKSPQLLVYNAKSLVDGVPSRFSGSGSGTQYSLRINSLQPEDFGSYYCQHFWIVPYTFGGGTKLEII
With B7, the “IC50, inhibition of IFNα secretion” value in experiment [1] came out at 12.7 pM. In addition, the concentration for a half-maximal effect (EC50) in experiment [2] stood at 479 pM.

B8: mab030c (antibody, V domains shown)
VH: DVQLQESGPGLVKPSQSLSLTCSVTGYSITSAYYWNWIRQFPGNKLECMGYISYDGSNYYNPSLKNRISITRDTSKNQFFLSLNSVTTEDTATYFCVRGGDYDDGGFAYWGQGTLVTVSA
VL: DIQMTQSPASLSASVGETVTITCRASGNIHNYLAWYQQKQGKSPQLLVYNAKTLADGVPSRFSGSGSETQYSLKINSLQPEDFGNYFCQHFWIIPYTFGGGTKLEIK
With B8, the “IC50, inhibition of IFNα secretion” value in experiment [1] came to 16.4 pM. This molecule also returned a 50% effective concentration (EC50) in experiment [2] of 583 pM.

B9: mAb021 (antibody, V domains shown)
VH: DVQLQESGPGLVKPSQSLSLTCSVTGYSITSAYYWNWIRQFPGNKLECMGYITYDGNNYYSPSLKNRISITRDTSKNQFFLNLNSVTTEDTATYFCARGGDYDDGGFAFWGQGTLVTVSA
VL: DIQMTQSPASLSASVGETVTITCRASGNIHNYLAWYHQKQGKSPQLLVYNAKSLVDGVPSRFSGSGSGTQYSLRINSLQPEDFGSYYCQHFWIVPYTFGGGTKLEII
notes: Mouse hybridoma antibody
Consider B9, for which the “IC50 for inhibiting cytokine IFNα release, CpG-A stimulated human PBMC” value in experiment [1] was determined as 4.05 pM. The concentration for a half-maximal effect (EC50) was found to be 328 pM in experiment [3] and 566 pM in experiment [4].

B10: mab027c (antibody, V domains shown)
VH: DVQLQESGPGLVKPSQSLSLTCSVTGYSITSAYYWNWVRQFPGNQLECMGYITYDGSNNYNPSLKNRISITRDTSKNQFFLKLNSVTTEDTATYYCVRGGDYDDGGFAYWGQGTLVTVSA
VL: DIQMTQSPASLSASVGETVTITCRASGNIHNYLAWYQQKQGKSPQLLVYNAKTLVDGVPSRFSGSGSGTEYSLKINSLQPEDFGIYFCQHFWIIPYTFGGGTKLEIR
Consider B10, for which the “IC50, inhibition of IFNα secretion” value in experiment [1] worked out at 8.98 pM. The molecule further registered a concentration giving a half-maximal response (EC50) in experiment [2] of 443 pM.
